From patent publication US20090246205A1 (Eli Lilly, published 2009)

Columns and labels:
Recombinant RON-Fc [1] = target: T1, Recombinant RON-Fc (human, UniProt Q04912 25-571); assay: ELISA, recombinant human RON receptor immobilized on the plate
T1 construct: also called recombinant human RON receptor; MSP-R; not shown: Fc part of the bought RON-Fc (Sigma-Aldrich)
T1 sequence (looked up): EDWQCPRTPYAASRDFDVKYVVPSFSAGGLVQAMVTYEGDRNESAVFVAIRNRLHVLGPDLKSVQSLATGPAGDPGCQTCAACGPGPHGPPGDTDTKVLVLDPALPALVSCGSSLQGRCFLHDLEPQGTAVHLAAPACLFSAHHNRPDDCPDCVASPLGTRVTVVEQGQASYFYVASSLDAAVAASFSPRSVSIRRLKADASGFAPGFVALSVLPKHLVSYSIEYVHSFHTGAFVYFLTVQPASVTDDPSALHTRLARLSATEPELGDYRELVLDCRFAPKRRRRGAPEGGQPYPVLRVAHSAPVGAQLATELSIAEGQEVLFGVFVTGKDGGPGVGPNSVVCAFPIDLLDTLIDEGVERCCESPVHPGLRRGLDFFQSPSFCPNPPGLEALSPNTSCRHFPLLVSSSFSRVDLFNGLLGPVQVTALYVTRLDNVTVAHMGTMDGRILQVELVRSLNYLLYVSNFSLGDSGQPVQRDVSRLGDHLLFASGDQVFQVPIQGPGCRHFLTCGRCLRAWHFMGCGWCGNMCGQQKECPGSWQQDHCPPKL

Recombinant RON-Fc [2] = target: T1, Recombinant RON-Fc; assay: ELISA, blocking of the MSP/RON interaction
Description: ELISA to Detect Fab Antibodies That Block the MSP/RON Interaction. Maxi-sorp 96-well microtiter plates (Nunc) were coated with (1 μg/ml×100 μl) MSP (R&D Systems) at RT for 1.5 hours. After washing the wells, they were blocked with 3% PBS/milk. Anti-RON phage antibodies that were converted to Fab or full IgG were pre-incubated with RON-Fc (25 ng/well) at RT for 1 hour. The Fab/RON-Fc or IgG/RON-Fc mixtures were then added to the MSP-coated wells and allowed to incubate for 1.5 h at RT.
ELISA for Determination of IC50 and ED50 The ability of the anti-RON antibodies, IMC-41A10 and IMC-41B12, to bind to recombinant human RON receptor and to block the MSP/RON interaction were measured using ELISA.

Recombinant RON-Fc [3] = target: T1, Recombinant RON-Fc; assay: BIAcore 3000 SPR, RON-Fc immobilized, Fab or antibody injected
Description: BIAcore-Analysis. The binding kinetics of soluble Fab and antibody proteins to RON was determined by using a BIACORE 3000 (BIAcore, Piscataway, N.J.). Recombinant RON-Fc was immobilized onto a sensor chip, and Fab or antibody was injected at various concentrations. Sensorgrams were obtained and evaluated using BIA Evaluation 2.0 software to determine rate constants. The affinity constant, KD, was calculated from the ratio of the rate constants Koff/Kₒₙ. The “Kon, M⁻¹.S⁻¹” and “Koff, S⁻¹” rates of the interaction were used to determine the affinity (Kd, M) of the antibody/receptor interaction. […] For IMC-41B12, they were: 1e-10, 1.7e6 and 1.7e-4.

B1: IMC-41A10 (antibody, V domains shown)
VH: EVQLVQSGGGLVKPGGSLRLSCAASGFTFSSYAMHWVRQAPGKGLEWVAVISYDGSNKYYADSVKGRFTISRDNSKNTLYLQMNSLRAEDTAVYYCARFSGWPNNYYYYGMDVWGQGTTVTVSS
VL: DVVMTQSPLSLPVTPGEPASISCRSSQSLLHSNGFNYVDWYLQKPGQSPHLLIYFGSYRASGVPDRFSGSGSGTDFTLKISRVEAEDVGVYYCMQALQTPPWTFGQGTKVEIR
notes: also called anti-RON IMC-41A10 antibody; IMC-14A10
EC50 (Recombinant RON-Fc [1]): 0.15 nM | IC50 (Recombinant RON-Fc [2]): 2 nM | Kd (Recombinant RON-Fc [3]): 1.5 nM | koff (Recombinant RON-Fc [3]): 0.00013 s⁻¹ | kon (Recombinant RON-Fc [3]): 84000 M⁻¹ s⁻¹

B2: IMC-41B12 (antibody, V domains shown)
VH: QVQLQESGPGLVKPSEILSLTCTVSGGSISSHYWSWVRQPPGKGLEWIGYIYYSGSTNYNPSLKSRVTISVDTSKNQFSLNLSSVTAADTAVYYCARIPNYYDRSGYYPGYWYFDLWGRGTLVTVSS
VL: QAVLTQPSSLSAPPGASASLTCTLRSGFNVDSYRISWYQQKPGSPPQYLLRYKSDSDKQQGSGVPSRFSGSKDASANAGILLISGLQSEDEADYYCMIWHSSAWVFGGGTKLTVLR
notes: also called IMC-14B12
EC50 (Recombinant RON-Fc [1]): 0.1 nM | IC50 (Recombinant RON-Fc [2]): 2 nM | Kd (Recombinant RON-Fc [3]): 0.1 nM | koff (Recombinant RON-Fc [3]): 0.00017 s⁻¹ | kon (Recombinant RON-Fc [3]): 1.7e+06 M⁻¹ s⁻¹
